The values that follow come from publication doi:10.1101/2022.02.09.479832v2 (biorxiv, 2022).

The target of data set [1] is T1, PmIleRS1 (Priestia megaterium, UniProt A0A0B6A6A8).
T1 sequence (A0A0B6A6A8 1-921): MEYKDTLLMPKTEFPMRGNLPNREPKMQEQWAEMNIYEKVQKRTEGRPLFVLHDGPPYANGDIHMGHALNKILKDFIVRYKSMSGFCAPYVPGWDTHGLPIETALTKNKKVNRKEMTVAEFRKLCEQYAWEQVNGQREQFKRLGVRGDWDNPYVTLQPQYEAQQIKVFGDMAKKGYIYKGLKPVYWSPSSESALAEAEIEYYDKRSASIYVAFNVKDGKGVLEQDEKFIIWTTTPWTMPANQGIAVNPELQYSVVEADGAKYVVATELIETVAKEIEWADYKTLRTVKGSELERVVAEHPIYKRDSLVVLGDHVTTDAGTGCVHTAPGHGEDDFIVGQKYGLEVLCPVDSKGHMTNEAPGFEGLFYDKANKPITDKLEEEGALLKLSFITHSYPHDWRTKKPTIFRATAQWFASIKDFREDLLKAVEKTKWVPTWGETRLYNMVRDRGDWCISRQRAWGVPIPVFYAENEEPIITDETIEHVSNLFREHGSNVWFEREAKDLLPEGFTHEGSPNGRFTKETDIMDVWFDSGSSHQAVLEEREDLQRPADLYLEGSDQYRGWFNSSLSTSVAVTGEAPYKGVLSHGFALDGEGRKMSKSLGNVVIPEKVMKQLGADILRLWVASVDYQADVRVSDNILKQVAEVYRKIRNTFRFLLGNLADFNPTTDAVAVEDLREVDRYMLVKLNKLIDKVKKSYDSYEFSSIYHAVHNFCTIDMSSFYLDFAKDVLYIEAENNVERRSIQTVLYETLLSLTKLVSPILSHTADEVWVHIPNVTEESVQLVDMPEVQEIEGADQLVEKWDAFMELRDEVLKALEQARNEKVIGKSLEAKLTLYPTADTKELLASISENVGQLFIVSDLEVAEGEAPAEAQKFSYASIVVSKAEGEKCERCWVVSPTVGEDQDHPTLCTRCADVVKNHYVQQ
As to the kind of experiment: biochemical. Particulars: read-out: koff.

Data set [2] concerns the target T1, PmIleRS1. As to the kind of experiment: time courses fitted to slow-binding equation, Ki = koff/kon. Conditions: competitive, tight binding, 30 °C. Type of data set: biochemical.
In data set [3] the target is T2, PmIleRS2 (Priestia megaterium, UniProt A0A0B6AVD3).
T2 sequence (A0A0B6AVD3 1-1032): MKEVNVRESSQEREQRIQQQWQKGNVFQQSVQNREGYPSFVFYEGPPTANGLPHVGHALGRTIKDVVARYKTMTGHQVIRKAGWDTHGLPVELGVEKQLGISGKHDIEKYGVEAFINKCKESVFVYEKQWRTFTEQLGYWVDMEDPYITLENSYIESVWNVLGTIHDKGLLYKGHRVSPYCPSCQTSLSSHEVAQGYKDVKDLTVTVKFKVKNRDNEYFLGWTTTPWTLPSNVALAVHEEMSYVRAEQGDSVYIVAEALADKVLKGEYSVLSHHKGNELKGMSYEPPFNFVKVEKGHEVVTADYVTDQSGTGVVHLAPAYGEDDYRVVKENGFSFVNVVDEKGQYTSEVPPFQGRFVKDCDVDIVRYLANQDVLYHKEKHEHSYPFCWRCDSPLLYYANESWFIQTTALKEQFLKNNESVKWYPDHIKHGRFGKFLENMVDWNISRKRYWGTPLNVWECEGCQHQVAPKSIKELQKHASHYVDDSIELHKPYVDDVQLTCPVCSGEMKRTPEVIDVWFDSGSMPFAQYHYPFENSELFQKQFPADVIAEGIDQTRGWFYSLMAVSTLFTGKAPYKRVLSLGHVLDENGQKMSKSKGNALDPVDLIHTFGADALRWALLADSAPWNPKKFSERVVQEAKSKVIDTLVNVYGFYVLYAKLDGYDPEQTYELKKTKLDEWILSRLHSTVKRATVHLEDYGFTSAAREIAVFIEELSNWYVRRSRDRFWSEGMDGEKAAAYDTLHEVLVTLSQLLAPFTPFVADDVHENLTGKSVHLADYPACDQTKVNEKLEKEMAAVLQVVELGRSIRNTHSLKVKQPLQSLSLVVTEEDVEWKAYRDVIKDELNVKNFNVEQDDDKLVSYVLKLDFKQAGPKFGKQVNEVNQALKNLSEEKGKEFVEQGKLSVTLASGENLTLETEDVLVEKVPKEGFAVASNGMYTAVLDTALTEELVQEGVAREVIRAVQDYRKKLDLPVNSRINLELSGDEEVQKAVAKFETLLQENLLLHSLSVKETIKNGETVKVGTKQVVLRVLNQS
The experiment in a line: biochemical.

In data set [4] the target is T1, PmIleRS1. As to the kind of experiment: biochemical. Particulars: read-out: kon.
Data set [5] concerns the target T2, PmIleRS2. As to the kind of experiment: biochemical. The source holds these as a separate data set.
Substrate in data set [6]: Nc1ncnc2c1ncn2[C@@H]1O[C@H](COP(=O)(O)OP(=O)(O)OP(=O)(O)O)[C@@H](O)[C@H]1O
The experiment in a line: purified protein, by the assay type.

Substrate in data set [7]: CC[C@H](C)[C@H](N)C(=O)O
As to the kind of experiment: purified protein, by the assay type.

Substrate in data set [8]: CC[C@H](C)[C@H](N)C(=O)O
The experiment in a line: purified protein, by the assay type. Conditions: 30.0 °C.

Substrate in data set [9]: Nc1ncnc2c1ncn2[C@@H]1O[C@H](COP(=O)(O)OP(=O)(O)OP(=O)(O)O)[C@@H](O)[C@H]1O
As to the kind of experiment: purified protein, by the assay type. Particulars: 30.0 °C.

Substrate in data set [10]: CCC[C@H](N)C(=O)O
As to the kind of experiment: purified protein, by the assay type. Particulars: 30.0 °C.

Substrate in data set [11]: CC[C@@H](C)[C@@H](N)C(=O)O
The experiment in a line: purified protein, by the assay type. Conditions: 30.0 °C.

Substrate in data set [12]: CC(C)[C@H](N)C(=O)O
As to the kind of experiment: purified protein, by the assay type. Particulars: 30.0 °C.

Read-outs that look alike come from different tables or passages of the source.

In general, koff refers to the first-order rate constant of dissociation. A word on the Ki: it is the dissociation constant of the complex between target and ligand, obtained from inhibition or displacement. The low end stands for a stronger hold on the target, the high end for a looser hold on the target. As usually defined, the kon is the second-order rate constant of association. On to `C/C(=C\C(=O)OCCCCCCCCC(=O)O)C[C@@H]1OC[C@H](C[C@@H]2O[C@H]2[C@@H](C)[C@H](C)O)[C@@H](O)[C@H]1O` [mupirocin], for which, in [1], the koff is 0.00043 s⁻¹. For the same molecule, the figures for the Ki in data set [2], in [3] and in [5] were 0.285 ± 0.146 nM, 1080 ± 60 nM and 1040 ± 40 nM, respectively. Besides, the kon in data set [4] was 1.51e+06 M⁻¹ s⁻¹.

B1: PmIleRS2 (Priestia megaterium NBRC 15308 = ATCC 14581) (protein)
chain: MKEVNVRESSQEREQRIQQQWQKGNVFQQSVQNREGYPSFVFYEGPPTANGLPHVGHALGRTIKDVVARYKTMTGHQVIRKAGWDTHGLPVELGVEKQLGISGKHDIEKYGVEAFINKCKESVFVYEKQWRTFTEQLGYWVDMEDPYITLENSYIESVWNVLGTIHDKGLLYKGHRVSPYCPSCQTSLSSHEVAQGYKDVKDLTVTVKFKVKNRDNEYFLGWTTTPWTLPSNVALAVHEEMSYVRAEQGDSVYIVAEALADKVLKGEYSVLSHHKGNELKGMSYEPPFNFVKVEKGHEVVTADYVTDQSGTGVVHLAPAYGEDDYRVVKENGFSFVNVVDEKGQYTSEVPPFQGRFVKDCDVDIVRYLANQDVLYHKEKHEHSYPFCWRCDSPLLYYANESWFIQTTALKEQFLKNNESVKWYPDHIKHGRFGKFLENMVDWNISRKRYWGTPLNVWECEGCQHQVAPKSIKELQKHASHYVDDSIELHKPYVDDVQLTCPVCSGEMKRTPEVIDVWFDSGSMPFAQYHYPFENSELFQKQFPADVIAEGIDQTRGWFYSLMAVSTLFTGKAPYKRVLSLGHVLDENGQKMSKSKGNALDPVDLIHTFGADALRWALLADSAPWNPKKFSERVVQEAKSKVIDTLVNVYGFYVLYAKLDGYDPEQTYELKKTKLDEWILSRLHSTVKRATVHLEDYGFTSAAREIAVFIEELSNWYVRRSRDRFWSEGMDGEKAAAYDTLHEVLVTLSQLLAPFTPFVADDVHENLTGKSVHLADYPACDQTKVNEKLEKEMAAVLQVVELGRSIRNTHSLKVKQPLQSLSLVVTEEDVEWKAYRDVIKDELNVKNFNVEQDDDKLVSYVLKLDFKQAGPKFGKQVNEVNQALKNLSEEKGKEFVEQGKLSVTLASGENLTLETEDVLVEKVPKEGFAVASNGMYTAVLDTALTEELVQEGVAREVIRAVQDYRKKLDLPVNSRINLELSGDEEVQKAVAKFETLLQENLLLHSLSVKETIKNGETVKVGTKQVVLRVLNQS
The Km is the substrate concentration at which the rate is half of its maximum. For orientation: kcat means the number of substrate molecules converted per active site and unit of time at saturation. By kcat/Km is commonly meant the turnover number divided by the Michaelis constant. B1: the Michaelis constant (Km) in data set [6] was 76.4 ± 1.4 µM; in [6] (30.0 °C), “(3.8 ± 0.2) × 10^3 uM”; in data set [7] it was 6.2 ± 0.8 µM; in [7] (30.0 °C) it was 69.3 ± 5.5 µM; in data set [8], 48.6 ± 1.9 µM; in data set [9], “(1.6 ± 0.1) × 10^3 uM”. In addition, the Km entry was “(7.97 ± 0.84) × 10^3 uM” in [10], “(2.3 ± 0.1) × 10^3 uM” in data set [11] and “(5.4 ± 0.4) × 10^3 uM” in [12]. Moreover, the catalytic constant (kcat) in data set [6] worked out at 0.96 ± 0.03 s⁻¹; in [10], 33 ± 1 s⁻¹; in data set [11], 1.54 ± 0.03 s⁻¹; in data set [12], 39 ± 1 s⁻¹. Also, the kcat/Km stood at 10000 M⁻¹ s⁻¹ in [6]; 20000 M⁻¹ s⁻¹ in [6] (30.0 °C); 150000 M⁻¹ s⁻¹ in [7]; 940000 M⁻¹ s⁻¹ in data set [7] (30.0 °C); 1.4e+06 M⁻¹ s⁻¹ in [8]; 40000 M⁻¹ s⁻¹ in data set [9]. Further, the kcat/Km in data set [10] is 4100 M⁻¹ s⁻¹; in [11] it was 670 M⁻¹ s⁻¹; in [12], 7000 M⁻¹ s⁻¹.
